Assay [1] deals with NT-647-labeled human C7 (human) (UniProt P10643). Briefly: MST.
Assay [2] deals with NT-647-labeled human C9 (human) (UniProt P02748). The experiment in a line: MST.
Assay [3] addresses CspA (full-length CspA^26–251) from Borrelia burgdorferi (Borrelia burgdorferi). Briefly: ELISA. A general note: In an ELISA, binding on a coated surface is turned into a signal by an enzyme label.

factor H, sequence (P08603 19-1231): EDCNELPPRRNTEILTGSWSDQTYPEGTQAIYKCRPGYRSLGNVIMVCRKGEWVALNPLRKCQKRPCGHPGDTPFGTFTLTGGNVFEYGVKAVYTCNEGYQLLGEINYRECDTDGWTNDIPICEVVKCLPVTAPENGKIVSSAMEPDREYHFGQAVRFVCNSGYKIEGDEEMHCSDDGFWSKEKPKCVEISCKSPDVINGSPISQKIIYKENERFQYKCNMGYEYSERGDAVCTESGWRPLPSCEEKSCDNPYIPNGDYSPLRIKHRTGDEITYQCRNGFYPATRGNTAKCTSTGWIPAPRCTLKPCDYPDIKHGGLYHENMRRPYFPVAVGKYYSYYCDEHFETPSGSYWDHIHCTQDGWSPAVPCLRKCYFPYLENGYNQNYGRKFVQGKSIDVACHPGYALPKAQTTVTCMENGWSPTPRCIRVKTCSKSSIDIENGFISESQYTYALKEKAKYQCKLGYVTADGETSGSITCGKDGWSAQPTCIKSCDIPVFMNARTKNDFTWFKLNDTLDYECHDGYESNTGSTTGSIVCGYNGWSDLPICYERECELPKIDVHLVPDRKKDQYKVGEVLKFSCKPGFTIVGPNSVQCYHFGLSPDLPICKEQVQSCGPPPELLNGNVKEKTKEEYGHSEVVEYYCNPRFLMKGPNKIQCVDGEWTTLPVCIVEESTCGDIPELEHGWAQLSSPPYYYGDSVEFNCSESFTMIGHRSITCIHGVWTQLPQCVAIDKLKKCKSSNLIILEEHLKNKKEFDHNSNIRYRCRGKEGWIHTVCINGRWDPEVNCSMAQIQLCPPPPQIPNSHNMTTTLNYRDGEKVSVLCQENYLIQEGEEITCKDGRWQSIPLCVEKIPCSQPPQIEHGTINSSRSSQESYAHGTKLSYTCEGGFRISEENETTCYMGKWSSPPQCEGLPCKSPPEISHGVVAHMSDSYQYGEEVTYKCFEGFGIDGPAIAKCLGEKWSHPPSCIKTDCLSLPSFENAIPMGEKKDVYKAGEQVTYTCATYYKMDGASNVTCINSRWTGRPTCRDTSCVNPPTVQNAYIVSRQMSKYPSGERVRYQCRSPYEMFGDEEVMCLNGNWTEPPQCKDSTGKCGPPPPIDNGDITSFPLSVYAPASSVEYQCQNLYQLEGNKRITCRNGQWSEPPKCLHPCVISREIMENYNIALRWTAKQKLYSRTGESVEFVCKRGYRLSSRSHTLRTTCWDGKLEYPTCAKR

As usually defined, the Kd is the concentration at which binding is half-saturated. Turning to “CspA (full-length CspA^26–251) from Borrelia burgdorferi (natural protein)”, the Kd in assay [1] was 5.1 µM; in assay [2], 3.4 µM.

Consider “human terminal complement component C9 (from UniProt P02748 22-559) (natural protein)”, for which the percent inhibition of binding by NaCl at 0.15 M in assay [3] turned out to be 35%. In assay [3], “human terminal complement component C7 (from UniProt P10643 23-843) (natural protein)” displayed a percent reduction of binding by NaCl at 0.15 M of 60% and a percent reduction of binding by heparin at 500 µg/ml of 42%. In assay [3], “factor H (from UniProt P08603 19-1231) (natural protein)” came in with a percent reduction of C7 binding to CspA by factor H at 5 µg/ml of 17% and a percent reduction of C9 binding to CspA by factor H at 5 µg/ml of 23%.

The record behind these values is publication PMC3747585.
